The results in this text go back to PMC3789827, “A GDF5 Point Mutation Strikes Twice - Causing BDA1 and SYNS2” (PLoS Genetics, 2013).

B1: recombinant human GDF5 (Growth and Differentiation Factor 5), wild type (ligand, UniProt P43026 28-501, looked up)
chain: APLATRQGKRPSKNLKARCSRKALHVNFKDMGWDDWIIAPLEYEAFHCEGLCEFPLRSHLEPTNHAVIQTLMNSMDPESTPPTCCVPTRLSPISILFIDSANNVVYKQYEDMVVESCGCR
notes: Growth and Differentiation Factor 5 (GDF5), human, recombinant protein; also called rhGDF5; GDF5^wt; source: recombinant, provided by Biopharm GmbH, dissolved in 10 mM HCl
B2: recombinant human GDF5 variant W414R (ligand, UniProt P43026 28-501, looked up)
chain: B1 chain with W33R
notes: Growth and Differentiation Factor 5 (GDF5), human, recombinant protein with the patient mutation p.W414R; The mutation was found in a family with SYNS2 and BDA1 (c.T1240C); also called rhGDF5^W414R; GDF5^W414R; source: recombinant, provided by Biopharm GmbH, dissolved in 10 mM HCl
B3: BMP receptor type IB (BMPR1B) ectodomain (domain or fragment, UniProt O00238 14-126, looked up)
chain: KKEDGESTAPTPRPKVLRCKCHHHCPEDSVNNICSTDGYCFTMIEEDDSGLPVVTSGCLGLEGSDFQCRDTPIPHQRRSIECCTERNECNKDLHPTLPPLKNRDFVDGPIHHR
notes: BMP receptor type IB (BMPR1B), ectodomain

Residue numbers refer to the chain shown, from its start. Names and notes keep the numbering of the source.

Holding throughout (experiment): SPR; BIA2000 system (Biacore); NOG and ectodomains of BMPR1A and BMPR1B immobilised, GDF5 proteins as analyte; apparent KD; mean of two experiments with at least six analyte concentrations
What all share (conditions): both partners purified

The target in one assay is T1, NOGGIN (NOG) (UniProt Q13253 28-232).
T1 construct: NOGGIN (NOG), BMP antagonist
T1 sequence (looked up): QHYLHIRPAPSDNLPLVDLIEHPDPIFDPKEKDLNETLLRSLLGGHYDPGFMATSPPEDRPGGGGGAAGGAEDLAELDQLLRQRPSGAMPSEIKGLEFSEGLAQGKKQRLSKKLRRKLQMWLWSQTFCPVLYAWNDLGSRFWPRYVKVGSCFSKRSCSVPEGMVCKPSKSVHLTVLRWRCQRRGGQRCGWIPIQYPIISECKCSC

Assay [1] deals with T2, BMP receptor type IA (BMPR1A) ectodomain (UniProt P36894 24-152).
T2 construct: BMP receptor type IA (BMPR1A), ectodomain

The target of assay [2] is B2.

T2 sequence (P36894 24-152): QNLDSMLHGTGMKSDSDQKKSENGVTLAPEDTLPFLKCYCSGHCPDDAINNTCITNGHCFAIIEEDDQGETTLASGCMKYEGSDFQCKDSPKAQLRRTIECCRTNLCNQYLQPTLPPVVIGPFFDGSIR

Regarding B1, in the assay with NOGGIN (NOG), the Kd is 2 nM. With B2, the Kd in assay [1] is 124 nM; in the assay with NOGGIN (NOG), 25.5 nM. With B3, in assay [2], the Kd stood at 3.3 nM.
